These are literature values, as cited in publication PMC10217895.

Where two headings read alike, the source gives them in different places.

As a reminder, the Kd is the free concentration of one partner at which half of the binding sites on the other are occupied at equilibrium, for simple one-to-one binding.

Targets include ASGPR (Homo sapiens) (UniProt P07306); LDLR (Homo sapiens) (UniProt P01130); SIGLEC5 (Homo sapiens) (UniProt O15389); LRP1 (Homo sapiens) (UniProt Q07954); SCARA5 (Homo sapiens) (UniProt Q6ZMJ2).
The target of series [1] is von Willebrand factor (Homo sapiens) (UniProt P04275).
For series [2] the target is unchanged. The source holds these as a separate data set.

Factor VIII, sequence (P00451 760-1332): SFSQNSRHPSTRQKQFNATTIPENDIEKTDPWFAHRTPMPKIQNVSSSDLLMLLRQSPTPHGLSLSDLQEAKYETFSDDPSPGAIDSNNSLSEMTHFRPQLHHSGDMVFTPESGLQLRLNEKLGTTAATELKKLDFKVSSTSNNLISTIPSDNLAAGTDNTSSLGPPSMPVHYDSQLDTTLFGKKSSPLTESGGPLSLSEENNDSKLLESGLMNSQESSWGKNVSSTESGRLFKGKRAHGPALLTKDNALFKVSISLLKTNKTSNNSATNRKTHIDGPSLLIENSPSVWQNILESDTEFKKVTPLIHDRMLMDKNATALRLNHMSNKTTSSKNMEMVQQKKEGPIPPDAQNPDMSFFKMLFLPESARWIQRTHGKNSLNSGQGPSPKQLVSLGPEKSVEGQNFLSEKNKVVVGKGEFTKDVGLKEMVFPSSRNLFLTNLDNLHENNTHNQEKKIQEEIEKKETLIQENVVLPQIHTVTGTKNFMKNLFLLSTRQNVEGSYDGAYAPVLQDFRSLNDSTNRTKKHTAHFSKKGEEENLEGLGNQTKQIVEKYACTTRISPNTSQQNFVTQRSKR
SCARA5 (Homo sapiens), sequence (Q6ZMJ2 whole entry): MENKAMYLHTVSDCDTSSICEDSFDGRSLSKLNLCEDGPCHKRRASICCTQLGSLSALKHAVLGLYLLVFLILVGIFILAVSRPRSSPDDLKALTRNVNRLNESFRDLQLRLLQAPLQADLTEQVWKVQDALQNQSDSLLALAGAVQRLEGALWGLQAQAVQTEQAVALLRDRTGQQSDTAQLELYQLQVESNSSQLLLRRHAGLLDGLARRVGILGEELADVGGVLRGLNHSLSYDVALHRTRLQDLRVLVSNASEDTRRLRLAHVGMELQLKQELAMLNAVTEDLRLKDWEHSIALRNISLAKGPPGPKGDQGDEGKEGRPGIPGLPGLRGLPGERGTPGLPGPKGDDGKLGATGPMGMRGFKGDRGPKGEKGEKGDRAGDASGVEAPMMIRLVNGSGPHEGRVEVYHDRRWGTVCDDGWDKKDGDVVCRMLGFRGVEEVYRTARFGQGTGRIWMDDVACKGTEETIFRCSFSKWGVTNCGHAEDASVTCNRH
ASGPR (Homo sapiens), sequence (P07306 whole entry, chain 1 of 2): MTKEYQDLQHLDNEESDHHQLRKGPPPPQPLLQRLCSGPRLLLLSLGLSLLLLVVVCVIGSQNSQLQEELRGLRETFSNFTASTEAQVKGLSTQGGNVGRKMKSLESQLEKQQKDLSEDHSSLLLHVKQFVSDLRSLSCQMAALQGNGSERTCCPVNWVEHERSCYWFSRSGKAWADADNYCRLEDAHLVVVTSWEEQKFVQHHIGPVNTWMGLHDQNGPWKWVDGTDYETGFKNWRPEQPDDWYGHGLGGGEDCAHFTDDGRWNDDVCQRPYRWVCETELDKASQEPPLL
ASGPR (Homo sapiens), sequence (P07307 whole entry, chain 2 of 2, further chain): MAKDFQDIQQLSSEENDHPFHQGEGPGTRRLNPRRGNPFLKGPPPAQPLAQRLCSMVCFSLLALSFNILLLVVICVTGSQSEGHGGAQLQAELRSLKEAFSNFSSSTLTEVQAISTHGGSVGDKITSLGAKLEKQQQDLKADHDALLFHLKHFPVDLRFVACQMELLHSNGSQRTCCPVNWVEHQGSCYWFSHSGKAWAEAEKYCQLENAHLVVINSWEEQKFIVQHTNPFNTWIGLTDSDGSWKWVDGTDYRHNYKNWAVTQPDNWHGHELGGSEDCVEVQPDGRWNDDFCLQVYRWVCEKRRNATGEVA
SIGLEC5 (Homo sapiens), sequence (O15389 17-441): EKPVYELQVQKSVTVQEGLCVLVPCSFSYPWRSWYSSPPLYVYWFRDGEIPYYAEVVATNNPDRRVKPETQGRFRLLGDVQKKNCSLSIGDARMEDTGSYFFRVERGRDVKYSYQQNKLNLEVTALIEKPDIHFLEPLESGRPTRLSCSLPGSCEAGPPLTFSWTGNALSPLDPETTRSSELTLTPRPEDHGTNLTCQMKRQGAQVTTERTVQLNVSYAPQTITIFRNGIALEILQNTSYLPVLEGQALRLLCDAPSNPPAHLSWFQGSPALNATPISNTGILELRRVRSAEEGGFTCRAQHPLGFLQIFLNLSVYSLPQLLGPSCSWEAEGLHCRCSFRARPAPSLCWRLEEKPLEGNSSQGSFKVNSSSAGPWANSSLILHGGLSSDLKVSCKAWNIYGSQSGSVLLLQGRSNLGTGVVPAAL
FVIII-KB013bv, sequence (P00451 20-759): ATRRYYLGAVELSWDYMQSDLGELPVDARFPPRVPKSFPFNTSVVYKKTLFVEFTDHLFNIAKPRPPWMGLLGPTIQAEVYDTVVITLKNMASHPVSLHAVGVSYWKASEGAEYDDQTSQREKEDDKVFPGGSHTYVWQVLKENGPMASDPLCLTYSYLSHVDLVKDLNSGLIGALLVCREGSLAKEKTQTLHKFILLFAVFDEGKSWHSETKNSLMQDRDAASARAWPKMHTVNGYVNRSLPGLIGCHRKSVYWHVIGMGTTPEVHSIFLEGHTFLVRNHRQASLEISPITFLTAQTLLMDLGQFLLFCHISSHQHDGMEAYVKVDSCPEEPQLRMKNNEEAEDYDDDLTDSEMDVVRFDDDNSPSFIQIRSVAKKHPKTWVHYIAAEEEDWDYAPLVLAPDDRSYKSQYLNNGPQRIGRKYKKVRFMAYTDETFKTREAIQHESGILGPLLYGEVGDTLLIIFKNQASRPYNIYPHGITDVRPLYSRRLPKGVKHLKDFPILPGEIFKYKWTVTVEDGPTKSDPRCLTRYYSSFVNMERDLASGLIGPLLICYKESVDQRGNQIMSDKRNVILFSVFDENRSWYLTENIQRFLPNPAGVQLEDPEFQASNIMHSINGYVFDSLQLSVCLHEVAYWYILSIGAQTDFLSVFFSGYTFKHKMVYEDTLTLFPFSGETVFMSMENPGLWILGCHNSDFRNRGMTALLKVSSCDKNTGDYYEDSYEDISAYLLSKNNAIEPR
FVIII-KB013bv, sequence (P00451 1668-2351): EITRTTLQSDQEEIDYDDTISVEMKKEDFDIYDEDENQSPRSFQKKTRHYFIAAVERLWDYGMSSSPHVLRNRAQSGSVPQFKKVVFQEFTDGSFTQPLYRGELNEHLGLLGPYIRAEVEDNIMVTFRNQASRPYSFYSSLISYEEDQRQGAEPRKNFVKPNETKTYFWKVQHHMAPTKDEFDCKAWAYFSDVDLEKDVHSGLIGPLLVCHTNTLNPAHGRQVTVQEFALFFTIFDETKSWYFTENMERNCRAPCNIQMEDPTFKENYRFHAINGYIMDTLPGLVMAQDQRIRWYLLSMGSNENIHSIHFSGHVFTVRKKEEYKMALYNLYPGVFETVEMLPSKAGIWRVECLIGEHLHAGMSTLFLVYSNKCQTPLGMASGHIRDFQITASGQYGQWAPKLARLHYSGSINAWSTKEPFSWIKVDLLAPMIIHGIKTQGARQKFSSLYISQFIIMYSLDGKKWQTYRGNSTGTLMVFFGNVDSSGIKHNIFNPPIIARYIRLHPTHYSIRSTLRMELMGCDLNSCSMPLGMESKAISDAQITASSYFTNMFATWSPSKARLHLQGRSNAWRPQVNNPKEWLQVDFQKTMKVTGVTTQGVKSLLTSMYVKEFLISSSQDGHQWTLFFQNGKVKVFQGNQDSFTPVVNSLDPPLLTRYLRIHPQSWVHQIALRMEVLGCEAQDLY
LDLR (Homo sapiens), sequence (P01130 22-788): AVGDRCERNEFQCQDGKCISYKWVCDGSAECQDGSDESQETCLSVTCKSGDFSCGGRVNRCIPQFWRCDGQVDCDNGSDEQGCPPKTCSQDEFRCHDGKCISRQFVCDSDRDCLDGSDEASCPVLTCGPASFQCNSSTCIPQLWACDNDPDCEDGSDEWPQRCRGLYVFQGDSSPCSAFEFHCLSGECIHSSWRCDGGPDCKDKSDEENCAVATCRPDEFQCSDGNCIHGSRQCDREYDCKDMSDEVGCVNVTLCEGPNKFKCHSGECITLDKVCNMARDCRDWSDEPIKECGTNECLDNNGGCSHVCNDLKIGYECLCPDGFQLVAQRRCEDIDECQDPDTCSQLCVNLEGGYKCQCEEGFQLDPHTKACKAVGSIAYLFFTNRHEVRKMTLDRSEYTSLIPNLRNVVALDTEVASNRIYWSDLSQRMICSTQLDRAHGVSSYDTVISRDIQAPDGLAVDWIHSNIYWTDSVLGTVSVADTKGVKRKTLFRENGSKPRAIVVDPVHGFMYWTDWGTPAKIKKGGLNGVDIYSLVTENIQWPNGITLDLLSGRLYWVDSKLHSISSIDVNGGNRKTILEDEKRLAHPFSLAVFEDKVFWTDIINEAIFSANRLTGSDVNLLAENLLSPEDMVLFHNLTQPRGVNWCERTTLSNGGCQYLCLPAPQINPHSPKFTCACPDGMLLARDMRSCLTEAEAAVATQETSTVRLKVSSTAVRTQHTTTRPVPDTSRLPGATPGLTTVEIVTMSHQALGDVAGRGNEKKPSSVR

Consider FVIII-KB013bv (from UniProt P00451), for which the dissociation constant Kd in series [1] was 0.013 nM.
Consider Factor VIII (from UniProt P00451), for which the Kd in series [2] was 0.5 nM; in the series with ASGPR (Homo sapiens) it was 2 nM; in the series with LDLR (Homo sapiens) it was 45 nM; with SIGLEC5 (Homo sapiens) it was 8 nM; in the series with LRP1 (Homo sapiens), 20 nM.
As for “von Willebrand factor (from UniProt P04275)”, in the series with SCARA5 (Homo sapiens), the Kd was 0.5 nM.
